One molecule from PMC9360328, “Tenuous Transcriptional Threshold of Human Sex Determination. I. SRY and Swyer Syndrome at the Edge of Ambiguity” can be followed below.

This series addresses SRY HMG box WT (Homo sapiens, UniProt Q05066 56-141). Description: FRET titration; 15 C, 25 nM DNA; FRET titration: 10 mM potassium phosphate, 10 mM Tris-HCl, 140 mM KCl, 1 mM EDTA, 1 mM DTT, pH 8.4, 15 C, 25 nM DNA; PGE: 10 nM DNA, 20 nM protein, 0.5x TBE, 4. The following applies: protein: recombinant; label: 5'-6-FAM (hexanyl linker) on upper strand; 5'-TAMRA (hexanyl linker) on lower strand; blunt.

Sequence of SRY HMG box WT (Q05066 56-141): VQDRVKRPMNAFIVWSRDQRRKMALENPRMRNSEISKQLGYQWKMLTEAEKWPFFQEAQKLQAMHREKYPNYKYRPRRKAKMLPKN

B1: 15-bp consensus SRY site, FRET-labeled (dsDNA)
DNA 1: TCGGTGATTGTTCAG
DNA 2: CTGAACAATCACCGA
As for B1, the Kd stood at 10 ± 3 nM.

As a reminder, the Kd is the equilibrium constant for the complex coming apart.
